Assay results as given in paper PMC4660060, “The molecular architecture of the Dam1 kinetochore complex is defined by cross-linking based structural modelling” (Nature Communications, 2015).

Experiments:
[1] = target: the molecule itself; assay: electron microscopy; cross-linked Dam1 complex on MTs examined by EM
[2] = target: the molecule itself; assay: TIRF microscopy, tracer residence time; GFP-tagged and unlabelled versions of the same mutant Dam1 complex mixed 1:100 to 2 nM in all (20 pM tracer), on immobilised MTs; BRB80, 0.8 mg/ml kappa-casein, 50 mM KCl, oxygen scavengers; concentrations that support oligomeric rings

B1: Dam1 complex (complex, yeast)
chain 1: MDSASKEETLEKLDQEITVNLQKIDSNLSFCFHKITQDIIPHVATYSEICERIMDSTEWLGTMFQETGLVNLQANAAAPVGNAPVKSLVSNNVGIFPTSAEEASRQSQTDNGPNEADSAVHVNRDVHSMFNNDSIDDFHTANITSTGQILKLPDSSDEDTGSEAVPSREQTDLTGEGHGGADDEQDESTIQRQSRKRKISLLLQQQYGSSSSMVPSPIVPNKMRKQLAHEEHINNDGDNDDENSNNIESSPLKQGHHHPKGQADDNNEGPDEEESTKEVPKPGTIIHFSTNR
chain 2: MMASTSNDEEKLISTTDKYFIEQRNIVLQEINETMNSILNGLNGLNISLESSIAVGREFQSVSDLWKTLYDGLESLSDEAPIDEQPTLSQSKTK
chain 3: MDSIDEQIAIKRKELQSLQKITSLTDGLKIQLTELNEQIKEMGMNADSVAQLMNNWDSIINNISQASLGLLQYAEGDYEIGPWKDSKKKESEQSNETGLEAQENDKNDEDNDEDEDLVPLPETMVRIRVDGNE
chain 4: MEHNLSPLQQEVLDKYKQLSLDLKALDETIKELNYSQHRQQHSQQETVSPDEILQEMRDIEVKIGLVGTLLKGSVYSLILQRKQEQESLGSNSK
chain 5: MENPHEQVQANILSRIIGNVKRLNESVAILNQELVTINNRNKNLEIMGAICDNYHSSVQFNLEATNNKKPPL
chain 6: MSEDKAKLGTTRSATEYRLSIGSAPTSRRSSMGESSSLMKFADQEGLTSSVGEYNENTIQQLLLPKIRELSDSIITLDSNFTRLNFIHESLADLNESLGSLLYGIMSNSWCVEFSQAPHDIQDDLIAIKQLKSLEDEKNNLVMELSNMERGIKRKKDEQGENDLAKASQNKQFNQPLFPSSQVRKYRSYDNRDKRKPSKIGNNLQVENEEDYEDDTSSEASFVLNPTNIGMSKSSQGHVTKTTRLNNNTNSKLRRKSILHTIRNSIASGADLPIENDNVVNLGDLHPNNRISLGSGAARVVNGPVTKNRNSMFSGRAERKPTESRHSVAKKTEKKINTRPPFR
chain 7: MSEQSQLDDSTIDKLIPQIFNEMRSNLNNTTNKFPKSTGGGASDNISANSNSIRSFNSITTQSLLKESESLDKITAMIKNVTAALKNNLPVYVNQVHEVCKSTNSILDSWINIHSQAGYIHKLMSDQTYLKLINDRLHNENVNTNDEDGSTLHNVIALKKKEILDLRQKLENRKGEKDAAPAKPPNQGLNPRYGVQSGRRPVPSAGISNNGRVRKTHVPASKRPSGIPRVTNRWTKPTASSSRKMFR
chain 8: MNANKQRQYNQLAHELRELQTNLQETTKQLDIMSKQCNENLVGQLGKVHGSWLIGSYIYYMEQMLGKTQ
chain 9: MTDALEQSVLALEGTVSVLKDSVESLKCANEPSTNLASTMLQTKRVFRLVPEYDVERSKLDLIEEVEPLVRTLGDKLRKSMGRMQRELDTLQQTYELNDLRLKKNISMDDDDALNSPDMGQEYEGRDADDVVMMASSTNEELEELKKLKEKKKQLENKLEILKQK
chain 10: MGESLDRCIDDINRAVDSMSTLYFKPPGIFHNAILQGASNKASIRKDITRLIKDCNHDEAYLLFKVNPEKQSVSRRDGKEGVFDYVIKRDTDMKRNRRLGRPGEKPIIHVPKEVYLNKDRLDLNNKRRRTATTSGGGLNGFIFDTDLIGSSVISNSSSGTFKALSAVFKDDPQIQRLLYALENGSVLMEEESNNQRRKTIFVEDFPTDLILKVMAEVTDLWPLTEFKQDYDQLYHNYEQLSSKLRFIKKEVLLQDDRLKTMSQYHPSSSHDVAKIIRKEKDEIRRLEMEIANLQE
notes: Ten different subunits; also called Dam1 kinetochore complex; free Dam1 complex; copies: + + + + + + + + +
B1: binds [1].

B2: Dam1-GFP NP complex, phosphorylated by Ipl1 (Dam1p S257A, S265A, S292A, Ask1p S200A, Spc34p T199A; Dam1p S20 phosphorylated) (complex, yeast)
chain 1: MDSASKEETLEKLDQEITVNLQKIDSNLSFCFHKITQDIIPHVATYSEICERIMDSTEWLGTMFQETGLVNLQANAAAPVGNAPVKSLVSNNVGIFPTSAEEASRQSQTDNGPNEADSAVHVNRDVHSMFNNDSIDDFHTANITSTGQILKLPDSSDEDTGSEAVPSREQTDLTGEGHGGADDEQDESTIQRQSRKRKIALLLQQQYGSSSSMVPSPIVPNKMRKQLAHEEHINNDGDNDDENSNNIESSPLKQGHHHPKGQADDNNEGPDEEESTKEVPKPGTIIHFSTNR
chain 2: MMASTSNDEEKLISTTDKYFIEQRNIVLQEINETMNSILNGLNGLNISLESSIAVGREFQSVSDLWKTLYDGLESLSDEAPIDEQPTLSQSKTK
chain 3: MDSIDEQIAIKRKELQSLQKITSLTDGLKIQLTELNEQIKEMGMNADSVAQLMNNWDSIINNISQASLGLLQYAEGDYEIGPWKDSKKKESEQSNETGLEAQENDKNDEDNDEDEDLVPLPETMVRIRVDGNE
chain 4: MEHNLSPLQQEVLDKYKQLSLDLKALDETIKELNYSQHRQQHSQQETVSPDEILQEMRDIEVKIGLVGTLLKGSVYSLILQRKQEQESLGSNSK
chain 5: MENPHEQVQANILSRIIGNVKRLNESVAILNQELVTINNRNKNLEIMGAICDNYHSSVQFNLEATNNKKPPL
chain 6: MSEDKAKLGTTRSATEYRLSIGSAPTSRRSSMGESSSLMKFADQEGLTSSVGEYNENTIQQLLLPKIRELSDSIITLDSNFTRLNFIHESLADLNESLGSLLYGIMSNSWCVEFSQAPHDIQDDLIAIKQLKSLEDEKNNLVMELSNMERGIKRKKDEQGENDLAKASQNKQFNQPLFPSSQVRKYRSYDNRDKRKPSKIGNNLQVENEEDYEDDTSSEASFVLNPTNIGMSKSSQGHVTKTTRLNNNTNSKLRRKAILHTIRNAIASGADLPIENDNVVNLGDLHPNNRIALGSGAARVVNGPVTKNRNSMFSGRAERKPTESRHSVAKKTEKKINTRPPFR
chain 7: MSEQSQLDDSTIDKLIPQIFNEMRSNLNNTTNKFPKSTGGGASDNISANSNSIRSFNSITTQSLLKESESLDKITAMIKNVTAALKNNLPVYVNQVHEVCKSTNSILDSWINIHSQAGYIHKLMSDQTYLKLINDRLHNENVNTNDEDGSTLHNVIALKKKEILDLRQKLENRKGEKDAAPAKPPNQGLNPRYGVQSGRRPVPSAGISNNGRVRKTHVPASKRPSGIPRVTNRWTKPTASSSRKMFR
chain 8: MNANKQRQYNQLAHELRELQTNLQETTKQLDIMSKQCNENLVGQLGKVHGSWLIGSYIYYMEQMLGKTQ
chain 9: MTDALEQSVLALEGTVSVLKDSVESLKCANEPSTNLASTMLQTKRVFRLVPEYDVERSKLDLIEEVEPLVRTLGDKLRKSMGRMQRELDTLQQTYELNDLRLKKNISMDDDDALNSPDMGQEYEGRDADDVVMMASSTNEELEELKKLKEKKKQLENKLEILKQK
chain 10: MGESLDRCIDDINRAVDSMSTLYFKPPGIFHNAILQGASNKASIRKDITRLIKDCNHDEAYLLFKVNPEKQSVSRRDGKEGVFDYVIKRDTDMKRNRRLGRPGEKPIIHVPKEVYLNKDRLDLNNKRRRTATTSGGGLNGFIFDTDLIGSSVISNSSSGTFKALSAVFKDDPQIQRLLYALENGSVLMEEESNNQRRKAIFVEDFPTDLILKVMAEVTDLWPLTEFKQDYDQLYHNYEQLSSKLRFIKKEVLLQDDRLKTMSQYHPSSSHDVAKIIRKEKDEIRRLEMEIANLQE
modifications: phosphoserine at S20 (by Ipl1 kinase, nearly stoichiometric)
notes: GFP-tagged complex, detected by its GFP; In the tracer assay 20 pM of this complex met 2 nM of the same phosphorylated mutant complex without GFP; also called Dam1 NP phos; Dam1 NP; source: recombinant Dam1 complex (E. coli BL21 Rosetta, purified); phosphorylated with GST-Ipl1, GST-Sli15 (554-698) and 10 mM ATP, 90 min, 30 °C; copies: + + + + + + + + +
B2 was tested, and the “fold increase of the average residence time on MTs against single molecules” value [2] was 2 fold.
